Experimental findings from publication PMC9160021, “Artificial intelligence-assisted cryoEM structure of Bfr2-Lcp5 complex observed in the yeast small subunit processome” (Communications Biology, 2022) are described below.

The labels stand for the following.
B1: Bfr2 (natural protein, UniProt Q06631 1-534, looked up)
chain: MEKSLADQISDIAIKPVNKDFDIEDEENASLFQHNEKNGESDLSDYGNSNTEETKKAHYLEVEKSKLRAEKGLELNDPKYTGVKGSRQALYEEVSENEDEEEEEEEEEEKEEDALSFRTDSEDEEVEIDEEESDADGGETEEAQQKRHALSKLIQQETKQAINKLSQSVQRDASKGYSILQQTKLFDNIIDLRIKLQKAVIAANKLPLTTESWEEAKMDDSEETKRLLKENEKLFNNLFNRLINFRIKFQLGDHITQNEEVAKHKLSKKRSLKELYQETNSLDSELKEYRTAVLNKWSTKVSSASGNAALSSNKFKAINLPADVQVENQLSDMSRLMKRTKLNRRNITPLYFQKDCANGRLPELISPVVKDSVDDNENSDDGLDIPKNYDPRRKDNNAIDITENPYVFDDEDFYRVLLNDLIDKKISNAHNSESAAITITSTNARSNNKLKKNIDTKASKGRKLNYSVQDPIANYEAPITSGYKWSDDQIDEFFAGLLGQRVNFNENEDEEQHARIENDEELEAVKNDDIQIFG
notes: Bfr2, S. cerevisiae, endogenous in the Δpih1-90S; the whole protein is 1–534; Endogenous protein of the 90S particle; only part of it is modelled in the map
B2: His-Lcp5(1–160) (domain or fragment, S. cerevisiae, UniProt P40079 1-160, looked up)
chain: MSELNALLKDINGSLTATSESLERLSGIYSNSATDEIPESNQLHEHLFYDAKKPAEKVSLLSLKNGSMLGYINSLLMLIGNRLDDECKDPSAMDARERSIQHRVVLERGVKPLEKKLAYQLDKLTRAYVKMEKEYKDAEKRALEKSTLVNHSGNDDSEDD
notes: Lcp5, S. cerevisiae, residues 1–160, polyhistidine tagged; The methods describe only the cloning of the untagged Lcp5(1–160); also called polyhistidine tagged Lcp5 fragment 1–160; source: bacteria expression host, purified
B3: Lcp5 (natural protein, UniProt P40079 1-357, looked up)
chain: MSELNALLKDINGSLTATSESLERLSGIYSNSATDEIPESNQLHEHLFYDAKKPAEKVSLLSLKNGSMLGYINSLLMLIGNRLDDECKDPSAMDARERSIQHRVVLERGVKPLEKKLAYQLDKLTRAYVKMEKEYKDAEKRALEKSTLVNHSGNDDSEDDESSEDEIAYRPNTSGIINTNKKSSAYRVEETAKQENGEENDDNETGVYKPPKITAVLPPQQTHFEDRFDAREHKDRSNKSRMQAMEEYIRESSDQPDWSASIGADIVNHGRGGIKSLRDTEKERRVTSFEEDNFTRLNITNKAEKRKQKQRERNARMNVIGGEDFGIFSSKRKLEDSTSRRGAKKTRSAWDRAQRRL
notes: Lcp5, S. cerevisiae, endogenous in the Δpih1-90S; the newly modelled N-terminal domain holds residues 1–141; Endogenous protein of the 90S particle; only part of it is modelled in the map

Holding throughout (conditions): both partners purified
One test addresses T1, Enp2 (S. cerevisiae (endogenous in yeast …, UniProt P48234 1-707)).
T1 construct: Enp2, S. cerevisiae, endogenous in the Δpih1-90S; its β-propeller is named as the part that Bfr2 touches; Endogenous protein of the 90S particle
T1 sequence (looked up): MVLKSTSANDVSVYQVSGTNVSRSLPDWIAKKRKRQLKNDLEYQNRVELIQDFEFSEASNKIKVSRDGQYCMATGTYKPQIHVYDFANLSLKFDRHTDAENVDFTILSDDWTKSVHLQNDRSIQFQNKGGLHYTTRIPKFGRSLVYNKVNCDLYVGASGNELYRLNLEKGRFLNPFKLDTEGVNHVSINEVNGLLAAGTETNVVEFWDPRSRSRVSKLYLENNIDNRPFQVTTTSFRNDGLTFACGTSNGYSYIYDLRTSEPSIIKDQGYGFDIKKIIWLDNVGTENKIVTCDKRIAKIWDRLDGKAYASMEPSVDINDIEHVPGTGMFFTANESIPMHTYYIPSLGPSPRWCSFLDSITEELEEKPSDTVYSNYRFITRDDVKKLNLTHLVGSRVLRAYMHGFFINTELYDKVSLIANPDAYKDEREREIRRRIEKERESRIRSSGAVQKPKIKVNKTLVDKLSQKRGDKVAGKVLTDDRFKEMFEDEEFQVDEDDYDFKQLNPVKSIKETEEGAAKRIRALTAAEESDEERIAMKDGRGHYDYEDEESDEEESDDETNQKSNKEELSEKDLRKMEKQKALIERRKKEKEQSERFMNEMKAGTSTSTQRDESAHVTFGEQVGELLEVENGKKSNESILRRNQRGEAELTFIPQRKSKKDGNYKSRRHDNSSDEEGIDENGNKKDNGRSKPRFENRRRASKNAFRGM
Put plainly: cryo-EM structure; Δpih1-90S purified from yeast by tandem affinity (Pwp2-TAP on IgG Sepharose, Kre33-TwinStrep on Strep-Tactin); 3.99 Å overall, 5.04 Å for the head (5' domain) where Bfr2-Lcp5 lies; Bfr2-Lcp5 model placed with the aid of AlphaFold.

Another test deals with T2, MBP-Bfr2(266–432) (S. cerevisiae (genomic DNA of BY4741 …, UniProt Q06631 266-432)).
T2 construct: source: E. coli Rosetta(DE3); in lysate (pull-down in cell) and purified (amylose, monoQ, gel filtration)
T2 sequence (looked up): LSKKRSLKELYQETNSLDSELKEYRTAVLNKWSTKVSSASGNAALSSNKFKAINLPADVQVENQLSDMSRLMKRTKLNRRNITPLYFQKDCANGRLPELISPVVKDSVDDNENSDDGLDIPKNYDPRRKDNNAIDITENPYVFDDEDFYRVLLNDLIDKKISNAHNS
Put plainly: pull-down; in vitro: purified MBP, MBP-Bfr2(360–432) or MBP-Bfr2(266–432) as bait with purified His-Lcp5(1–160).

The test “Bfr2” concerns the target B1. Put plainly: cryo-EM structure; Δpih1-90S purified from yeast by tandem affinity (Pwp2-TAP on IgG Sepharose, Kre33-TwinStrep on Strep-Tactin); 3.99 Å overall, 5.04 Å for the head (5' domain) where Bfr2-Lcp5 lies; Bfr2-Lcp5 model placed with the aid of AlphaFold.

Consider B1, for which the binding result in the test with Enp2 is listed as “binds”.

In the case of B2, the binding result in the test with MBP-Bfr2(266–432) is “binds”.

Consider B3, for which the binding result with Bfr2 was “binds”.
